Experimental data published in patent US20220002701A1.

Key:
[1] = biological target: SARS-CoV-2 S protein containing D614 with the C-terminal 19 residues of the cytoplasmic tail deleted, on MLV pseudovirus (SARS-CoV-2) (UniProt P0DTC2); test: cell-based or functional assay
[2] = biological target: stabilized soluble SARS-CoV-2 S ectodomain trimer in the pre-fusion conformation (SARS-CoV-2; bacteriophage T4) (UniProt P0DTC2)

Sequence of ACE2615-LL-foldon (Q9BYF1 18-615, tags left off, one chain of several): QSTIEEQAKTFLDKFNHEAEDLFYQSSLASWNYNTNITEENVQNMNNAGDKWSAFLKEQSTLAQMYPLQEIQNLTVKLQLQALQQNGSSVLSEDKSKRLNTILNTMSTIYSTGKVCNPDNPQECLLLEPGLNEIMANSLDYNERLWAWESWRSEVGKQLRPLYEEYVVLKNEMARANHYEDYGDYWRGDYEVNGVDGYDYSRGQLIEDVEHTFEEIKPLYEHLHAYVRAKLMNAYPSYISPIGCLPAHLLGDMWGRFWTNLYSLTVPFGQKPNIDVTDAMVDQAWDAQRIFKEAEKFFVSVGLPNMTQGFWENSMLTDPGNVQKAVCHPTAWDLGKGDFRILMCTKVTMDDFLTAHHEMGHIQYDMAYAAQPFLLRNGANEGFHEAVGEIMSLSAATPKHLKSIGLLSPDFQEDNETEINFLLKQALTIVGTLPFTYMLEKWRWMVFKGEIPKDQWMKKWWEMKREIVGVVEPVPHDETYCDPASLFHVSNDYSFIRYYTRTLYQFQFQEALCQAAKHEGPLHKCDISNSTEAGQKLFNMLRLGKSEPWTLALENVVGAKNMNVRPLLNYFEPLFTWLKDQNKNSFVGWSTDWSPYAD

Substance: ACE2615-LL-foldon (from UniProt Q9BYF1 18-615; P10104 458-484) (receptor)
- IC50, inhibition of MLV-based pseudovirus infection of ACE2-expressing cells [1]: 0.6 µg/mL
- Kd [2]: 0.624 nM
- ka2 [2]: 3.3
- kdis2 [2]: 0.365
- koff [2]: 8.26e-05 s⁻¹
- kon [2]: 133000 M⁻¹ s⁻¹
